Measurements published in article PMC7463542, “Automated GMP-Compliant Production of [^68Ga]Ga-DO3A-Tuna-2 for PET Microdosing Studies of the Glucagon Receptor in Humans” (Pharmaceuticals, 2020).

Columns and labels:
[1] = Storage stability of the aqueous precursor solution at −20 °C (formation of oxidized product); assay type: physicochemical; details: at least six months
[2] = Safety, pharmacology, and toxicology studies in animals; assay type: in vivo
[3] = assay type: physicochemical
Method: The aseptic production was conducted in a GMP grade A workstation (unidirectional laminar airflow workbench (LAFW)) situated in a cleanroom with GMP grade B air quality. The ^68Ge/^68Ga generator (GalliaPharm®, Eckert & Ziegler, Berlin, Germany) and Modular PharmLab labeling synthesis platform (Eckert & Ziegler Eurotope, Berlin, Germany) were placed in the LAFW. A high-performance liquid chromatography system (LaChrom, Hitachi, VWR) consisting of an L-2130 pump, UV detector (L-2400), and radiation flow detector (Bioscan) coupled in series was used for product quality control. Separation of the analytes was accomplished using an analytical column with a stationary reversed phase (C-4; Vydac-C4; 50 × 4.6 mm; particle size: 3 µm). The conditions were as follows: A = 10 mM trifluoroacetic acid in water; B = 100% acetonitrile (MeCN) with 10 mM TFA with UV-detection at 220 nm; linear gradient elution: 0 min at 24% B, 0–8 min from 24 to 45% B, 8–10 min at 45% B, 10–15 min at 24% B; flow rate was 2.0 mL/min. Data acquisition and handling were performed using the EZChrom Elite Software Package (version 1.3).
Quality control on the chemical purity, radiochemical purity, and determination of the peptide concentration was performed using UV-Radio-HPLC. The development and validation of the method were conducted using two different reversed-phase columns Vydac-C4 and Aeris-C4 with mobile phases of 0.1% TFA in water as the A mobile phase and 0.1% TFA in acetonitrile as the B mobile phase. The gradient of B increased from 25% to 40% within 30 min for Aeris-4 and B increased from 24 to 45% within 8 min, followed by 2 min of isocratic elution. The recovery of radioactivity from the analytical column was investigated, in order to confirm that no radioactive product or impurities were left on the column, by collecting HPLC effluent with and without an analytical column and measuring the radioactivity. The tests were performed for both the product ([^68Ga]Ga-DO3A-VS-Cys^40-Tuna-2) and free ^68Ga(III). Specificity, linearity, and precision as repeatability were validated for both UV- and radio-detectors.
Three successful sequential productions were performed for the manufacturing validation. A fraction of pre-determined volume was kept for the subsequent determination of ^68Ge content and solvent residual content. The stability of the product at room temperature was monitored by UV-radio-HPLC for 2 h.

[4] = Sensitivity of the labelled product to (radiolytic) oxidation; assay type: physicochemical; details: compared with [^68Ga]Ga-DO3A-VS-Cys^40-Exendin-4; labeling conditions
glucagon receptor (GCGR) [5] = molecular target: T1, glucagon receptor (GCGR) (Homo sapiens, UniProt P47871); assay type: in vivo, humans
T1 construct: strong liver uptake expected due to the high glucagon receptor expression on hepatocytes; from tissue; host or cells: liver (hepatocytes) of living human subjects with type 2 diabetes
Excerpt: [^68Ga]Ga-DO3A-VS-Cys^40-Tuna-2 PET/CT was used for assessing the hepatic GCGR receptor density and availability within a phase Ib, open-label study investigating the receptor occupancy of a dual GLP1/GCG agonist (ClinicalTrials.gov: NCT03350191). The results of the full receptor occupancy study, as well as the human biodistribution and dosimetry of [^68Ga]Ga-DO3A-VS-Cys^40-Tuna-2, will be reported separately. The study was approved by the Swedish Medical Products Agency and the regional ethical review board (Dnr 2017/395; EudraCT nr. 2017-001789-23).
Briefly, individuals with T2D were enrolled in the study and signed informed consent. They (n = 13) were placed in the supine position with the liver in the 20 cm axial PET field of view of a Discovery MI PET/CT scanner (GE Healthcare). [^68Ga]Ga-DO3A-VS-Cys^40-Tuna-2 (target dose 0.5 MBq/kg, <0.2 µg/kg peptide) was administered intravenously as a bolus followed by a 60 min dynamic PET acquisition in list-mode. The PET list mode data were reconstructed into 30 frames (12 × 10, 6 × 30, 5 × 120, 5 × 300, 2 × 600 s) using an iterative VPFX-S algorithm (3 iterations, 3 subsets, matrix 256 × 256, Z-axis post-filter 3 mm) with all relevant corrections performed.

glucagon receptor (GCGR) [6] = details: in vitro and in vivo in rats and non-human primates; 16 (previous studies); cited from earlier work
Excerpt: The manufacturing process of [^68Ga]Ga-DO3A-VS-Cys^40-Tuna-2 was automated for clinical use to meet the radiation safety and good manufacturing practice (GMP) requirements. Methods: The automated synthesis platform (Modular-Lab PharmTrace, Eckert & Ziegler, E ...

T1 sequence (P47871 26-477): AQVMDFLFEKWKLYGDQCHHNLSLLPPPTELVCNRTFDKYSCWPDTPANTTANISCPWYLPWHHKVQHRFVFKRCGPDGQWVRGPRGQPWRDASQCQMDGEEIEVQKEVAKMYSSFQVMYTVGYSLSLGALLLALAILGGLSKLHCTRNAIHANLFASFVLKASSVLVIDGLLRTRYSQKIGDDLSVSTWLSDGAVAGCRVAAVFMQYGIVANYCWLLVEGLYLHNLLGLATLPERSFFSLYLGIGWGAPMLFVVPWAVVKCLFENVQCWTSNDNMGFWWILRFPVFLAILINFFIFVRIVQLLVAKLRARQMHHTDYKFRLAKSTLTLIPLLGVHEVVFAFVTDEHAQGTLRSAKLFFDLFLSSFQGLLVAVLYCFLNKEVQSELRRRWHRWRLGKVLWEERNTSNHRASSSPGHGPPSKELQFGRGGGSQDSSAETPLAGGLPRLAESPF

Row | Binding in the liver (glucagon receptor (GCGR) [5]; T2D patients, IV bolus, baseline examinations, 60 min dynamic PET) | Substance | Formation of oxidized product upon storage [1] | Toxicity related to the substance [2] | Stability: radiochemical purity 2 h postproduction [3] [%] | RCP at ambient temperature for at least 2 h ([3]; ambient temperature, Figure 5, as stated in discussion) | Time for which the product was stable at ambient temperature ([3]; formulated product, ambient temperature, UV-radio-HPLC) | Radiochemical purity (RCP) after production, 1 h and 2 h post-production ([3]; formulated product, room temperature, radioactivity traces of Figure 5) | Sensitivity to oxidation [4] | Plasma kinetics (glucagon receptor (GCGR) [5]; in vivo, iv) | Binding to the glucagon receptor (GCGR) (glucagon receptor (GCGR) [6])
1 | – | TzaD-SerQGTFTSDYSKQLDE*QRAK*EFIEWLLATGPESGAPPPS (sidechain bridge or staple) [DO3A-VS-Cys^40-Tuna-2, unlabelled precursor (GMP-grade API starting material): Tuna-2 peptide coupled to DOTA bifunctional chelator via Cys40 and vinyl sulfone linker] | no formation of the oxidized product was detected | no DO3A-VS-Cys^40-Tuna-2 related toxicity | – | – | – | – | – | – | –
2 | strong binding in the liver | TzaD-SerQGTFTSDYSKQLDE*QRAK*EFIEWLLATGPESGAPPPS (sidechain bridge or staple) [[^68Ga]Ga-DO3A-VS-Cys^40-Tuna-2, ^68Ga-labeled peptide-based PET imaging agent targeting GCGR; 39-residue Tuna-2 coupled to DOTA chelator via Cys40 and vinyl sulfone linker] | – | – | 97.9 ± 0.9 | over 95% | at least 2 h | over 98% | less sensitive to the oxidation | rapid plasma kinetics | high-affinity specific binding
